Sequences and labels used below:
B1: MHGARP8 (antibody, V domains shown)
VH: QVQLKESGPGLVAPSQSLSITCTVSGFSLTGYGINWVRQPPGKGLEWLGMIWSDGSTDYNSVLTSRLRISKDNSNSQVFLKMNSLQVDDTARYYCARDRNYYDYDGAMDYWGQGTSVTVSS
VL: DIQVTQSSSYLSVSLGDRVTITCKASDHIKNWLAWYQQKPGIAPRLLVSGATSLEAGVPSRFSGSGSGKNFTLSITSLQTEDVATYYCQQYWSTPWTFGGGTTLEIR
notes: biotinylated for FACS; also called MHG-8
B2: LHG-10.4-D (antibody, human IgG1, V domains shown)
VH: EVQLVQPGAELRNSGASVKVSCKASGYRFTSYYIDWVRQAPGQGLEWMGRIDPEDGGTKYAQKFQGRVTFTADTSTSTAYVELSSLRSEDTAVYYCARNEWETVVVGDLMYEYEYWGQGTQVTVSS
VL: DIQMTQSPSSLSASLGDRVTITCQASQSISSYLAWYQQKPGQAPKLLIYGTSRLKTGVPSRFSGSGSGTSFTLTISGLEAEDAGTYYCQQYYSAPVTFGQGTKVELK
B3: LHG-10.4 (antibody, human IgG1, V domains shown)
VH: EVQLVQPGAELRNSGASVKVSCKASGYRFTSYYIDWVRQAPGQGLEWMGRIDPEDGGTKYAQKFQGRVTFTADTSTSTAYVELSSLRSEDTAVYYCARNEWETVVVGDLMYEYEYWGQGTQVTVSS
VL: DIQMTQSPSSLSASLGDRVTITCQASQSISSYLAWYQQKPGQAPKLLIYGTSRLKTGVPSRFSGSGSGTSFTLTISGLEAEDAGTYYCQQYYSAPVTFGQGTKVELK
notes: VK-shuffled variant of LHG-10, human IgG1
B4: LHG-10.5-D (antibody, human IgG1, V domains shown)
VH: EVQLVQPGAELRNSGASVKVSCKASGYRFTSYYIDWVRQAPGQGLEWMGRIDPEDGGTKYAQKFQGRVTFTADTSTSTAYVELSSLRSEDTAVYYCARNEWETVVVGDLMYEYEYWGQGTQVTVSS
VL: DIQMTQSPSSLSPSLGDRVTITCQASQTISSFLAWYHQKPGQPPKLLIYRASIPQTGVPSRFSGSGSGTSFTLTIGGLEAEDAGTYYCQQYVSAPPTFGQGTKVELK
B5: LHG-10.5 (antibody, human IgG1, V domains shown)
VH: EVQLVQPGAELRNSGASVKVSCKASGYRFTSYYIDWVRQAPGQGLEWMGRIDPEDGGTKYAQKFQGRVTFTADTSTSTAYVELSSLRSEDTAVYYCARNEWETVVVGDLMYEYEYWGQGTQVTVSS
VL: DIQMTQSPSSLSPSLGDRVTITCQASQTISSFLAWYHQKPGQPPKLLIYRASIPQTGVPSRFSGSGSGTSFTLTIGGLEAEDAGTYYCQQYVSAPPTFGQGTKVELK
notes: as for B3
B6: LHG-10.6-D (antibody, human IgG1, V domains shown)
VH: EVQLVQPGAELRNSGASVKVSCKASGYRFTSYYIDWVRQAPGQGLEWMGRIDPEDGGTKYAQKFQGRVTFTADTSTSTAYVELSSLRSEDTAVYYCARNEWETVVVGDLMYEYEYWGQGTQVTVSS
VL: DIQMTQSPSSLSASLGDRVTITCQASQSISSYLAWYQQKPGQAPNILIYGASRLKTGVPSRFSGSGSGTSFTLTISGLEAEDAGTYYCQQYASVPVTFGQGTKVELK
notes: also called LHG-10.6N297Q
B7: LHG-10-D (antibody, human IgG1, V domains shown)
VH: EVQLVQPGAELRNSGASVKVSCKASGYRFTSYYIDWVRQAPGQGLEWMGRIDPEDGGTKYAQKFQGRVTFTADTSTSTAYVELSSLRSEDTAVYYCARNEWETVVVGDLMYEYEYWGQGTQVTVSS
VL: DIQMTQSPTSLSASLGDRVTITCQASQSISSYLAWYQQKPGQAPKLLIYGASRLQTGVPSRFSGSGSGTSFTLTISGLEAEDAGTYYCQQYDSLPVTFGQGTKVELK
B8: LHG-10.3 (antibody, human IgG1, V domains shown)
VH: EVQLVQPGAELRNSGASVKVSCKASGYRFTSYYIDWVRQAPGQGLEWMGRIDPEDGGTKYAQKFQGRVTFTADTSTSTAYVELSSLRSEDTAVYYCARNEWETVVVGDLMYEYEYWGQGTQVTVSS
VL: DIQMTQSPSSLSASLGDRVTITCQASQSIVSYLAWYQQKPGQAPKLLIYGASRLQTGVPSRFSGSGSGTSFTLTISGLEAEDAGTYYCQQYASAPVTFGQGTGVELK
notes: as for B3
B9: LHG-10.6 (antibody, human IgG1, V domains shown)
VH: EVQLVQPGAELRNSGASVKVSCKASGYRFTSYYIDWVRQAPGQGLEWMGRIDPEDGGTKYAQKFQGRVTFTADTSTSTAYVELSSLRSEDTAVYYCARNEWETVVVGDLMYEYEYWGQGTQVTVSS
VL: DIQMTQSPSSLSASLGDRVTITCQASQSISSYLAWYQQKPGQAPNILIYGASRLKTGVPSRFSGSGSGTSFTLTISGLEAEDAGTYYCQQYASVPVTFGQGTKVELK
notes: as for B3
B10: LHG-10.3-D (antibody, human IgG1, V domains shown)
VH: EVQLVQPGAELRNSGASVKVSCKASGYRFTSYYIDWVRQAPGQGLEWMGRIDPEDGGTKYAQKFQGRVTFTADTSTSTAYVELSSLRSEDTAVYYCARNEWETVVVGDLMYEYEYWGQGTQVTVSS
VL: DIQMTQSPSSLSASLGDRVTITCQASQSIVSYLAWYQQKPGQAPKLLIYGASRLQTGVPSRFSGSGSGTSFTLTISGLEAEDAGTYYCQQYASAPVTFGQGTGVELK

These results are taken from US20160251438A1 (LUDWIG INSTITUTE FOR CANCER RESEARCH, published 2016).

T1 sequence (P01137 30-390 limits assumed): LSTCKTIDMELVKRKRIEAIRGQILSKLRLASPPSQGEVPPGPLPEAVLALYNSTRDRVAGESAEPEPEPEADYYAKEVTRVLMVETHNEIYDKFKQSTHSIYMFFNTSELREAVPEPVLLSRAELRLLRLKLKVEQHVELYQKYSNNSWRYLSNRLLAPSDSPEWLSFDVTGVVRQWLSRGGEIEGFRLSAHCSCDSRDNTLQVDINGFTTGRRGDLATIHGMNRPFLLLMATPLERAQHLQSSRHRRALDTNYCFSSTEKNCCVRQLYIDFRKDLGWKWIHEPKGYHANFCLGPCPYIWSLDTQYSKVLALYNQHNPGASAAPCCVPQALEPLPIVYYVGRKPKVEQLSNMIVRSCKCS

One assay concerns the target T1, human TGF-β1 (latent) (human, UniProt P01137 30-390).
T1 construct: from transfected hTGFB1; also called hTGF-β1; hTGFB1
Briefly: FACS, 293T + hTGFB1 only [cont.) B]. The text has this:
No latent TGF-β is detected on their surface with an anti-LAP antibody. Transfection of GARP or TGFB1 alone induces no or low surface LAP, respectively, whereas co-transfection of GARP and TGFB1 induces high surface LAP as a result of latent TGF-β1 binding and presentation by GARP (FIG. 14, part B, left histograms).
For orientation: Flow cytometry measures light scatter and fluorescence of single cells or particles in a stream.
In the case of B1, the binding result is “no binding”.

The target of a further assay is T2, recombinant soluble human GARP-TGFβ1 complex (human, UniProt Q14392 20-628; P01137 30-390).
T2 construct: co-expressed in HEK293E, purified by the Strep-Tag; TGFβ consists of LAP and mature TGFβ; also called shGARP-TGFβ; rhGARP-TGFβ
T2 sequence (Q14392 other isoform, or with tags, fused parts or gaps limits assumed, chain 1 of 2): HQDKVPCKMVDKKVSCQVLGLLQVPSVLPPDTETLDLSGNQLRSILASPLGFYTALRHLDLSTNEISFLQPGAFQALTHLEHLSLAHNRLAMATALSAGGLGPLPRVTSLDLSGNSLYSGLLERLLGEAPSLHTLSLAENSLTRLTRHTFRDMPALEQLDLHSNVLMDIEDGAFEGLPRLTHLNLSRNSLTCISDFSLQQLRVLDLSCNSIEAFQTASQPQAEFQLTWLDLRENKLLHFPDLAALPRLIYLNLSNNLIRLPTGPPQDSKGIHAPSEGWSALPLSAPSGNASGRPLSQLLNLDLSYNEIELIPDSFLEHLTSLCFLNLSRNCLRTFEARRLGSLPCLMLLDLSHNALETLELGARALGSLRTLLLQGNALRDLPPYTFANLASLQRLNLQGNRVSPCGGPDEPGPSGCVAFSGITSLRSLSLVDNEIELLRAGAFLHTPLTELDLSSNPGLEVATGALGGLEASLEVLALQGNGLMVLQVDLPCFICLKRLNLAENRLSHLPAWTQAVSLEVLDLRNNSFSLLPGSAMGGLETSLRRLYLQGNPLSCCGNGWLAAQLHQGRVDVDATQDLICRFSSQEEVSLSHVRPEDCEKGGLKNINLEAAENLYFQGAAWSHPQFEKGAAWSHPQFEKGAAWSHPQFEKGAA
T2 sequence (P01137 30-390 limits assumed, chain 2 of 2): as the sequence (P01137 30-390 limits assumed) above
Briefly: SPR (Biacore), hGARP-TGFβ1 immobilised.
As usually defined, the Kd is the constant that tells how readily two partners part at equilibrium. Usually koff stands for a measure of how fast the partners let go of each other. What is called kon is the second-order rate constant of association. As for B2, the equilibrium dissociation constant (Kd) was found to be 0.0327 nM, the “fold improvement of KD (reference LHG-10-D)” value came to 5.7 fold, the “fold improvement of ka (reference LHG-10-D)” value was 0.4 fold and the “fold improvement of kd (reference LHG-10-D)” value was 2.2 fold. For the same molecule, the koff turned out to be 1.21e-05 s⁻¹ and the kon turned out to be 371000 M⁻¹ s⁻¹.
On to B3, for which the Kd is 0.0291 nM, the “fold improvement of KD (reference LHG-10)” value turned out to be 4.5 fold, the “fold improvement of ka (reference LHG-10)” value worked out at 0.5 fold and the “fold improvement of kd (reference LHG-10)” value was 2.4 fold. Besides, the koff amounted to 1.3e-05 s⁻¹ and the kon came out at 448000 M⁻¹ s⁻¹.
In the case of B4, the Kd was found to be 0.028 nM, the “fold improvement of KD (reference LHG-10-D)” value amounted to 6.6 fold, the “fold improvement of ka (reference LHG-10-D)” value worked out at 0.4 fold and the “fold improvement of kd (reference LHG-10-D)” value is 2.4 fold. Further, the off-rate constant (koff) was 1.07e-05 s⁻¹ and the kon was found to be 383000 M⁻¹ s⁻¹.
As to B5, the Kd is 0.0331 nM, the “fold improvement of KD (reference LHG-10)” value came to 4 fold, the “fold improvement of ka (reference LHG-10)” value was 0.6 fold and the “fold improvement of kd (reference LHG-10)” value amounted to 2.3 fold. The koff was determined as 1.37e-05 s⁻¹ and the kon is 415000 M⁻¹ s⁻¹.
For B6, the Kd stood at 0.0216 nM, the “fold improvement of KD (reference LHG-10-D)” value was 8.6 fold, the “fold improvement of ka (reference LHG-10-D)” value was 0.5 fold and the “fold improvement of kd (reference LHG-10-D)” value turned out to be 4.3 fold. For the same molecule, the koff is 6.15e-06 s⁻¹ and the on-rate constant (kon) stood at 284000 M⁻¹ s⁻¹.
Take B7: the Kd turned out to be 0.185 nM, the “fold improvement of KD (reference LHG-10-D)” value worked out at 1 fold, the “fold improvement of ka (reference LHG-10-D)” value worked out at 1 fold and the “fold improvement of kd (reference LHG-10-D)” value came to 1 fold. The off-rate (koff) came to 2.62e-05 s⁻¹ and the kon was 142000 M⁻¹ s⁻¹.
Regarding B8, the Kd was 0.0222 nM, the “fold improvement of KD (reference LHG-10)” value was 5.9 fold, the “fold improvement of ka (reference LHG-10)” value came out at 0.8 fold and the “fold improvement of kd (reference LHG-10)” value came out at 4.9 fold. The koff came to 6.38e-06 s⁻¹ and the kon came to 287000 M⁻¹ s⁻¹.
As to B9, the equilibrium dissociation constant (Kd) was 0.0159 nM, the “fold improvement of KD (reference LHG-10)” value came out at 8.2 fold, the “fold improvement of ka (reference LHG-10)” value came to 0.9 fold and the “fold improvement of kd (reference LHG-10)” value is 7.1 fold. The koff was 4.4e-06 s⁻¹ and the kon is 276000 M⁻¹ s⁻¹.
With B10, the Kd was found to be 0.0224 nM, the “fold improvement of KD (reference LHG-10-D)” value amounted to 8.3 fold, the “fold improvement of ka (reference LHG-10-D)” value worked out at 0.6 fold and the “fold improvement of kd (reference LHG-10-D)” value was 5.1 fold. Besides, the koff worked out at 5.18e-06 s⁻¹ and the kon came out at 231000 M⁻¹ s⁻¹.
